Laboratory results as given in article PMC9385667, “Structural basis for proton coupled cystine transport by cystinosin” (Nature Communications, 2022).
Substitutions are numbered along the chain they refer to. In names and notes the source's numbering stands. Each block holds one molecule with its values, some of them ahead of it.

What was measured:
[1] = target: T1, Arabidopsis thaliana cystinosin (plant cystinosin) (Arabidopsis thaliana, UniProt P57758); test: pyranine proton-flux transport assay in proteoliposomes; format: biochemical; conditions: 500 μM substrate, pH 7.2, 25 °C, valinomycin / K+ gradient
T1 construct: gene At5g40670; codon-optimised gene expressed in Saccharomyces cerevisiae BJ5460 as cleavable C-terminal GFP-His fusion; tag cut with TEV protease; DDM-purified; reconstituted in POPE:POPG liposomes for transport
T1 sequence (P57758 1-270): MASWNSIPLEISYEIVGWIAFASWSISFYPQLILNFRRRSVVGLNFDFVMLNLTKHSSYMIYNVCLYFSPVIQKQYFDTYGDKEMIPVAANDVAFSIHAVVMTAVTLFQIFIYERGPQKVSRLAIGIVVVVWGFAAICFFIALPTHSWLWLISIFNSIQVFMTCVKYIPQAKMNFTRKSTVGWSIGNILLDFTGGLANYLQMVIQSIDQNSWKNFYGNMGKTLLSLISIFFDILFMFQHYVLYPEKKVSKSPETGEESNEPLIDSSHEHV

[2] = target: T1, Arabidopsis thaliana cystinosin (plant cystinosin); test: X-ray crystal structure, […] Å; conditions: complex with sybody Syb39; lipidic cubic phase; central binding site, inward-open state
[3] = target: T2, Arabidopsis thaliana cystinosin (plant cystinosin) (Arabidopsis thaliana, UniProt P57758, S228A); test: nanoDSF tryptophan fluorescence quench, DDM-purified protein; format: binding; conditions: 3.2 mM L-cystine, 10 μM protein, pH 7.2, 25 °C
T2 construct: gene At5g40670; codon-optimised gene expressed in Saccharomyces cerevisiae BJ5460 as cleavable C-terminal GFP-His fusion; tag cut with TEV protease; DDM-purified; reconstituted in POPE:POPG liposomes for transport
T2 sequence (P57758 1-270 S228A): T1 sequence (P57758 1-270) with S228A

[4] = target: T3, Arabidopsis thaliana cystinosin (plant cystinosin) (Arabidopsis thaliana, UniProt P57758, P169G); test: as above; format: binding; conditions: 3.2 mM L-cystine, 10 μM protein, pH 7.2, 25 °C
T3 construct: gene At5g40670; codon-optimised gene expressed in Saccharomyces cerevisiae BJ5460 as cleavable C-terminal GFP-His fusion; tag cut with TEV protease; DDM-purified; reconstituted in POPE:POPG liposomes for transport
T3 sequence (P57758 1-270 P169G): T1 sequence (P57758 1-270) with P169G

[5] = target: T4, Arabidopsis thaliana cystinosin (plant cystinosin) (Arabidopsis thaliana, UniProt P57758, W24F); test: as above; format: binding; conditions: 3.2 mM L-cystine, 10 μM protein, pH 7.2, 25 °C
T4 construct: gene At5g40670; codon-optimised gene expressed in Saccharomyces cerevisiae BJ5460 as cleavable C-terminal GFP-His fusion; tag cut with TEV protease; DDM-purified; reconstituted in POPE:POPG liposomes for transport
T4 sequence (P57758 1-270 W24F): T1 sequence (P57758 1-270) with W24F

[6] = tested on: T5, N[C@@H](CSSC[C@H](N)C(=O)O)C(=O)O; test: two-electrode voltage clamp in Xenopus laevis oocytes; format: cell-based, Homo sapiens; conditions: pH 5, -40 mV, ND-96, proton-coupled transport
T5 construct: no GFP; plasma membrane of Xenopus laevis oocytes

[7] = target: T6, Arabidopsis thaliana cystinosin (Arabidopsis thaliana, UniProt P57758); test: crystal structure; apo cystinosin with Nb1 and Nb4, lipidic cubic phase, 2.33 Å, PDB 7ZKZ; conditions: both partners purified
T6 construct: cystinosin from Arabidopsis thaliana, Uniprot P57758; codon-optimised synthetic gene in pDDGFP-Leu2d; also called plant cystinosin; the transporter; source: Saccharomyces cerevisiae BJ5460, purified in DDM (Ni-NTA, TEV cleavage, reverse IMAC, Superdex 200)

[8] = target: T7, Arabidopsis thaliana cystinosin (Arabidopsis thaliana, UniProt P57758 1-270); test: BLI
T7 chain: T1 sequence (P57758 1-270)

[9] = substrate: N[C@@H](CSSC[C@H](N)C(=O)O)C(=O)O; test: pyranine proton-flux transport assay in proteoliposomes; format: biochemical, Arabidopsis thaliana; conditions: pH 7.2 both sides, 25 °C, valinomycin / K+ gradient
[10] = substrate: N[C@@H](CSSC[C@H](N)C(=O)O)C(=O)O; test: two-electrode voltage clamp in Xenopus laevis oocytes; format: cell-based, Homo sapiens; conditions: pH 5, -40 mV, ND-96, proton-coupled transport
[11] = target: T6, Arabidopsis thaliana cystinosin; test: crystal structure; apo cystinosin with Syb39 and Nb4, lipidic cubic phase (monoolein), 20 °C, 2.65 Å, PDB 7ZK1; conditions: both partners purified

Molecule: N[C@@H](CSSC[C@H](N)C(=O)O)C(=O)O [L-cystine]
X-ray crystal structure, 3.37 Å [2]: we determined the structure of the ligand bound state in complex with Syb39 | % loss of binding relative to WT [3]: ~ 50% | nanoDSF tryptophan fluorescence quench, DDM-purified protein [4]: it still retains WT levels of L-cystine binding | % loss of binding relative to WT [5]: ~ 50%

Molecule: human cystinosin (WT) (Homo sapiens; DEL362-367)
Km [6]: 117 ± 2.4 µM

B2: Arabidopsis thaliana cystinosin (plant cystinosin) (Arabidopsis thaliana) (protein)
chain: T1 sequence (P57758 1-270)
notes: codon-optimised gene expressed in Saccharomyces cerevisiae BJ5460 as cleavable C-terminal GFP-His fusion; tag cut with TEV protease; DDM-purified; reconstituted in POPE:POPG liposomes for transport
Km ([9]; proton-coupled symport): 19 ± 2.9 µM

B3: Arabidopsis thaliana cystinosin (plant cystinosin) (Arabidopsis thaliana; Y167F) (protein)
chain: T1 sequence (P57758 1-270) with Y167F
notes: as for B2
Km [9]: 73.3 ± 12.8 µM

B4: human cystinosin Δ2-115 variant (ΔN) (Homo sapiens; DEL2-115) (protein)
chain: MLVIRSSAISIINQVIGWIYFVAWSISFYPQVIMNWRRKSVIGLSFDFVALNLTGFVAYSVFNIGLLWVPYIKEQFLLKYPNGVNPVNSNDVFFSLHAVVLTLIIIVQCCLYERGGQRVSWPAIGFLVLAWLFAFVTMIVAAVGVTTWLQFLFCFSYIKLAVTLVKYFPQAYMNFYYKSTEGWSIGNVLLDFTGGSFSLLQMFLQSYNNDQWTLIFGDPTKFGLGVFSIVFDVVFFIQHFCLYRKRP
notes: no GFP; Xenopus laevis oocytes
Km [10]: 117 ± 28.9 µM

The next lines start with the values.

transport, % of WT levels at 500 μM [1]: ~ 80%
Molecule: N[C@@H](CSS(=O)(=O)C[C@H](N)C(=O)O)C(=O)O [L-cystine-S,S-dioxide]

binding result [7]: binds | Kd [8]: 189 nM
B1: Nb1 (VHH)
VHH: QVQLVESGGGSAQPGGSLRLSCAVSGSVSELNTMGWFRQAPGKQRELVARITATSDATNYADSVKGRFTISRDNGWNTVYLQSNSLKPEDSAVYYCNVEGAPSWFSGIRSYWGQGTQVTVSS
notes: llama nanobody

binding result [7]: binds | Kd [8]: 90 nM
B5: Nb4 (VHH)
VHH: QVQLVESGGGLVQAGGSLRLSCAASGRTITPISTYVMGWFRQDPGKEREFVASISWNGANTYYADSVKGRFTISRDNAKNTVYLQMNSLKPEDTAVYYCAADPESHVRLRLGVGAYWGRGTQVTVSS
notes: llama nanobody; also called llama derived nanobody (Nb4)

binding result [11]: binds | Kd [8]: 760 nM
B6: sybody 39 (VHH)
VHH: QVQLVESGGGLVQAGGSLRLSCAASGFPVYRNRMHWYRQAPGKEREWVAAIESAGQETHYADSVKGRFTISRDNAKNTVYLQMNSLKPEDTAVYYCNVKDEGWYWQTYDYWGQGTQVTVSA
notes: synthetic nanobody selected from the loop library; also called Syb39
